The results in this text go back to the Immune Epitope Database (IEDB).

Experiment [1] has as its target HLA-C*05:01. The experiment is described as follows: IEDB peptide-MHC binding, purified MHC/direct/fluorescence; filed as Kd, often an IC50 or EC50 that approximates it; ≥ and ≤ were set here for values at or beyond the usual limits of such assays. The conditions noted are these: source organism: Yersinia pestis Nepal516.
Experiment [2] has as its target HLA-B*08:01. Nature of the experiment: IEDB peptide-MHC binding, purified MHC/competitive/fluorescence; filed as Kd, often an IC50 or EC50 that approximates it; ≥ and ≤ were set here for values at or beyond the usual limits of such assays. To be noted: source organism: Yersinia pestis Nepal516.
The target in experiment [3] is HLA-B*35:01. The description is as above.
Experiment [4] deals with HLA-B*51:01. Described as above. To be noted: source organism: Yersinia pestis Nepal516.
Experiment [5] deals with HLA-B*07:02. The experiment is described as above.
Where [6] appears, read: source organism: Yersinia pestis Nepal516.
[7] abbreviates: source organism: Influenza A virus (A/Leningrad/1954/1(H1N1)).

On to FPIKRISAV, for which the Kd (usually the free concentration of one partner at which half of the binding sites on the other are occupied at equilibrium, for simple one-to-one binding) was not below 20000 nM in experiment [1], 51.2 nM in experiment [2], 0.4 nM in experiment [3] (setting [6]) and 268 nM in experiment [4].
Turning to EPLAVIASL, the Kd in experiment [5] (setting [6]) is not below 20000 nM; in experiment [3] (setting [6]) it was 1.7 nM; in experiment [4] it was not below 20000 nM.
Take LVSLGAISF: the Kd was not below 20000 nM in experiment [5] (setting [7]) and 290 nM in experiment [3] (setting [7]).
